According to the DeepSol protein solubility set:

Assay: soluble on expression in E. coli; label from the status in PepcDB or PDB records

| Sequence | soluble on expression in E. coli |
| --- | --- |
| VGPEAYGEASHSHSPASGRYIQQMLDQRCQEIAAELCQSGLRKMCVPSSRIVARNAVGITHQNTLQWRCFDTASLLESNQENNGVNCVDDCGHTIPCPGGVHRQNSNHATRHEILSKLVEEGVQRFCSPYQASANKYCNDKFPGTIARRSKGFGNNVEVAWRCYEKASLLYSVYAECASNCGTTWYCPGGRRGTSTELDKRHYTEEEGIRQAIGSVDSPCSEVEVCLPKDENPPLCLDESGQISRT | soluble |
| VIVYGDYNNDGNVDALDFAGLKKYIMAADHAYVKNLDVNLDNEVNSTDLAILKKYLLGMVSKLPSN | soluble |
| VKFLTVNDDILSMPQARNFCASAGGYLADDLGDDKNNFYSSIAANTQFWIGLFKNSDGQFYWDRGQGINPDLLNQPITYWANGEPSNDPTRQCVYFDGRSGDKSKVWTTDTCATPRPFICQKHRYDSDHKPNTIGDA | soluble |
| VKVQPNDYVFRDLANHNQIFVKDKDPKVYNNPYYIDQVQLKDAQQTDLTSIQASFTTLDGVDKTEILKELKVTDKNQNAIQISDITLDTSKSLLIIKGDFNPKQGHFNISYNGNNVTTRQSWEFKDQLYAYSGNLGAVLNQDGSKVEASLWSPSADSVTMIIYDKDNQNRVVATTPLVKNNKGVWQTILDTKLGIKNYTGYYYLYEIKRGKDKVKILDPYAKSLAEWDSNTVNDDIKTAKAAFVNPSQLGPQNLSFAKIANFKGRQDAVIYEAHVRDFTSDQSLDGKLKNQLGTFAAFSEKLDYLQKLGVTHIQLLPVLSYFYVNEMDKSRSTAYTSSDNNYNWGYDPQSYFALSGMYSEKPKDPSARIAELKQLIHDIHKRGMGVILDVVYNHTAKTYLFEDIEPNYYHFMNEDGSPRESFGGGRLGTTHAMSRRVLVDSIKYLTSEFKVDGFRFDMMGDHDAAAIELAYKEAKAINPNMIMIGEGWRTFQGDQGKPVKPADQDWMKSTDTVGVFSDDIRNSLKSGFPNEGTPAFITGGPQSLQGIFKNIKAQPGNFEADSPGDVVQYIAAHDNLTLHDVIAKSINKDPKVAEEDIHRRLRLGNVMILTSQGTAFIHSGQEYGRTKRLLNPDYMTKVSDDKLPNKATLIEAVKEYPYFIHDSYDSSDAINHFDWAAATDNNKHPISTKTQAYTAGLITLRRSTDAFRKLSKAEIDREVSLITEVGQGDIKEKDLVIAYQTIDSKGDIYAVFVNADSKARNVLLGEKYKHLLKGQVIVDADQAGIKPISTPRGVHFEKDSLLIDPLTAIVIKVGKVAPSPKEELQADYPKTQSFKGSKTVEKVNRIANKTSITPVVSNKTDSYLTNEANLEHHHHHH | soluble |
| VLLLDVTPLSLGIETLGGVFTRLIPRNTTIPTKKSQIFSTAAAGQTSVEIRVFQGERELVRDNKLIGNFTLAGIPPAPKGVPQIEVTFDIDADGIINVSARDKATNKDSSITVAGSSGLSENEIEQMVNDAEKFKSQDEARKQAIETANKADQLANDTENSLKEFEGKVDKAEAQKVRDQITSLKELVARVQGGEEVNAEELKTKTEELQTSSMKLFEQLYKNDSNNNNNNNGNNAESGETKQ | soluble |
| VLSRIQFVSRFGSNLVHIEGVKGSGKSWLAQRYLEKWCDDADQVLLMCHPNQSIQQQRGIILKQVVRDPLFNESDSVVDSVGRMLAGEKCNLVLAIDDAHLLSSELLSELWLLVQKAQSAPNWQINILLFAEKGKLTQTLSQMSYGQDNKPVDIDINP | not soluble |
| VMGNEYPDWIWGLSTTLRYKDWTLGISLDGRVGGMAYSRTEQTMWNTGVHPDSDNKWRYDEVVNGKKNYVGQGVKVVSGKVEYDTTGKIVSDTRVFAPNDTQVSYESYIKNYNPWSGGKVYQNVHDCTFLKLRELSLLYTMPKSVCEKIHMKGVTLGLIGQNLLIWMKEFKYADPDVDSDDLNSPSMRYVGFNVKFDL | not soluble |
| VMNRMATALGGDYFDFISMPDGREVVFIGDVTGHDIQSSVVMSLVYGFLHHCALTVDDPLTMVSQLNRFLVRFADHGTELDHHFSSTLFLGIIDPASLRLEYVNAGHVPPLVLRRNSLHRLASTSPPVGFFAEAEVATGCFGLERGDRLLLYTDGILDASNGTETFGAERLDAFLTATGGSYTRFMDELAAALRDFGAGDPPDDDCSAIVIDI | not soluble |
| VNPKQPDLGVHVHLVRNVCTVSLDSSGASLDRRGYRTEAGEAPLRETLAAALVEMTGWDGTVPLLDPMCGSGTILVEAALKALNRAPGLIRERFGFQHWPSFDSSLWLRLVTEARQGERTSLESPLLGSDQQADLLSVAAANARRAGVEQHISFTSGDVRGLTPPPAPGIILFNPPYGRRLGDEEGLRVLYRQIGDVLKQRCAGYTAWLLTGGPELAKAVGLRASRRIVLFNGPLECRFLRFDLY | not soluble |
| VNSVTISVEGMTCNSCVWTIEQQIGKVNGVHHIKVSLEEKNATIIYDPKLQTPKTLQEAIDDMGFDAVIHNIEGR | soluble |
| VNYRTPAEIMSVANELLTQINPDIAPAMAIRESGREVVNLPLDADLSAVMDSLREEDSQRTIAVISSRRHHESDFYLVDDIKGLEFDHVIVVDPAGIVEESPQGLQDLYVAVTRATQSLTILGE | not soluble |
| VPKLIDHDRRQQEIAEAVWRVIQREGIGAVSVRDVAAEAGISSGSLRHVFASKTELLAYSMRLVATRVRERAQAHASITDPWQRALAVLDEVLPLDDRRRCEMEVNLALVAESPAHPLLKDIALDAQRQLRGACAAILTGLAQWGLIAPDIDVDAEAMRLHALVDGAAMHVLLGDTDTPDTARRMIAEHLRTLL | not soluble |
| VSDVPRDIEVVAVTPTSALISWDAPAVTIRYIRLTYGETGGNSPVQEITLPGSKSTYTISGLKPGTDYTVTLYSVTGRGDSPASSKPASINFRTEI | soluble |
| VSVITSEMKMELRMEGAVNGHKFVITGKGSGQPFEGIQNMDLTVIEGGPLPFAFDILTTVFDYGNRVFVKYPEEIVDYFKQSFPEGYSWERSMSYEDGGICLATNNITMKKDGSNCFVYEIRFDGVNFPANGPVMQRKTVKWEPSTEKMYVRDGVLKGDVNMALLLQGGGHYRCDFRTTYKAKKVVQLPDYHFVDHRIEITSHDKDYNKVKLYEHAKAHSGLPRLAK | soluble |
| VSYVSVLPATLATAATEVARIGSALSLASAVAAAQTSAVQAAAADEVSAAIAALFSAHGRDFQALSARAAAFHHEFVQALAAGAGSYAVAEIAAASPLQSLIDVFNAPIQAATGRPLIGNGANGQPGTGAPGGPAGG | soluble |
| VTDVLLCVGNSMMGDDGAGPLLAEKCAAAPKGNWVVIDGGSAPENDIVAIRELRPTRLLIVDATDMGLNPGEIRIIDPDDIAEMFMMTTHNMPLNYLIDQLKEDIGEVIFLGIQPDIVGFYYPMTQPIKDAVETVYQRLEGWEGNGGFAQLAVEEE | soluble |
| VTVTLCSPTEDDWPGMFLLAAASFTDFIGPESATAWRTLVPTDGAVVVRDGAGPGSEVVGMALYMDLRLTVPGEVVLPTAGLSFVAVAPTHRRRGLLRAMCAELHRRIADSGYPVAALHASEGGIYGRFGYGPATTLHELTVDRRFARFHADAPGGGLGGSSVRLVRPTEHRGEFEAIYERWRQQVPGGLLRPQVLWDELLAECKAAPGGDRESFALLHPDGYALYRVDRTDLKLARVSELRAVTADAHCALWRALIGLDSMERISIITHPQDPLPHLLTDTRLARTTWRQDGLWLRIMNVPAALEARGYAHEVGEFSTVLEVSDGGRFALKIGDGRARCTPTDAAAEIEMDRDVLGSLYLGAHRASTLAAANRLRTKDSQLLRRLDAAFASDVPVQTAFEF | not soluble |
| VVAPITTGYTVKISNYGWDQSDKFVKIYITLTGVHQVPTENVQVHFTERSFDLLVKNLNGKSYSMIVNNLLKPISVEGSSKKVKTDTVLILCRKKVENTRWDYLTQVEKECKEK | soluble |
| VVKLAFPRELRLLTPSQFTFVFQQPQRAGTPQITILGRLNSLGHPRIGLTVAKKNVRRAHERNRIKRLTRESFRLRQHELPAMDFVVVAKKGVADLDNRALSEALEKLWRRHCRLARGS | soluble |
| VVKQDLSDNQYIQKKPNEITSNELLLPLPNDKLLGDPKAPILMIEYASLTCYHCSLFHRNVFPKIKEKYIDTGKMLYIFRHFPLDYRGLKAAMLSHCYEKQEDYFNFNKAVFNSIDSWNYYNLSDLTLLQRIAALSNLKQDAFNQCINDKKIMDKIVNDKSLAINKLGITAVPIFFIKLNDDKSYIEHNKVKHGGYKELKYFTNVIDKLYGKAIVKLEHHHHHHHH | soluble |
| VVPAQHRPPDRPGDPAHDPGRGRRLGIDVGAARIGVACSDPDAILATPVETVRRDRSGKHLRRLAALAAELEAVEVIVGLPRTLADRIGRSAQDAIELAEALARRVSPTPVRLADERLTTVSAQRSLRQAGVRASEQRAVIDQAAAVAILQSWLDERLAAMAGTQEGSDA | not soluble |
| VYGDIWGFETDRYFTKDDFNADGSYKEGIASQKKLEQDGFVYGPGDIKFKDLNNDKEINGGEGTVKDHGDLKVIGNTTPRYQYGFRLGGEWKGIDIDMFFQGVGKCDAWTQSAFVMPMMRGADAIYANQANYWTDENPDPNADFPRMWPGNAGKGTVSVLDLGNHNFYPQSKYLVNMAYLRFKNLTIGYTLPKDWTRKVYMDKVRVYFSANNICELINKSNAPVDPEVNTSEAIANGGSSDYGNGTWGRVDPMYRTVSFGLQVTF | not soluble |
| WKTTLKLTLDNVVKLEKLKPLVEDFYREFEFAELQINMEVFNGSWEAIAQGRADIVVGATSAVPVGGDFEVKDMGVLDWAFVMSPAHPCVRQQVLTEEFVSQFPAICLDDTSNVLPKRHTGHYAKQRRLLLPNWYSAIECLKNGVGVGYMPRHIAMPLIHEGVLVEKLLQDDKPLSRCCLVWRKDDDHKLIQWMVDYLGSPNQLHQDWLQC | soluble |
| WRKKRKDAKNNEVSFSQIKPKKSKLIRVENFEAYFKKQQADSNCGFAEEYEDLKLIGISLPKYAAEIAENRGKNRYNNVLPYDISRVKLSVQTHSTDDYINANYMPGYHSKKDFIATQGPLPNTLKDFWRMVWEKNVYAIVMLTKCVEQGRTKCEEYWPSKQAQDYGDITVAMTSEVVLPEWTIRDFVVKNMQSSESHPLRQFHFTSWPDHGVPDTTDLLINFRYLVRDYMKQIPPESPILVHCSAGVGRTGTFIAIDRLIYQIENENTVDVYGIVYDLRMHRPLMVQTEDQYVFLNQCVLDIIRAQKDSKVDLIYQNTTAMTIYENLERVSMFGKANGYIA | soluble |
| WTCNKFRCGEKRLTRSLCACSDDCKDQGDCCINYSSVCQGEKS | soluble |
| WYGSPQFDGKYVHWDHPLLPHWDPKVASSYSTGRHQPPEDIGANFYPALGPYSSRDPAVLEEHMRQLRMAAVGVLAVSWYPRSMKDDNGEEIDSLLPLILDAADKYQLKVLYNLYVFKNVICINKYV | soluble |
| YAYKSNTYFKLKKKNIKLNGNIIKKSCKLGIPVALQNSLIAFSLIVLQKVVNGYGATFTTAFTVVSRIETLVQQPFMSLGAAVSTYTGQNIGAGLKDRVRKGFN | not soluble |
| YGKQRKASVIGAINTVSMNELKMPVAKLSSGLAGQLAGIVVMQRSGEPGAGADFWIRGINTFGAGNKPLVLVDGVERSMDLVDVEDIASFSILKDATATALYGVRGANGIVLITTKRGTES | not soluble |
| YPFYAQYNYDSPREATGKIVCANCHLAKKTVEIEVPQAVLPDTVFKAVVKVPYDLDIQQVQADGSPSGLNVGAVLMLPEGFKLAPPERVDEELMEEVGDFYYLVTPYSETDENILLAGPLPGEDYQEMIFPILSPNPATDAGVYFGKYSIHLGGNRGRGQVYPTGELSNNNAFSASIAGTIAAIEDNGFGFDVTIQPEDGDAVVTSILPGPELIVAVGDTVEAGQLLTTNPNVGGFGQMDSEIVLQSSS | soluble |
| YSSAYKEFIKKSMKYRTEEDTFTDANGLAGCRYWSPKNYEKIARMMAQPKYKPAFAYLFFFRSYVNDQQITSCVFQVQRDGMPESILVQPVLRDESSVTLE | not soluble |
